Test system: Escherichia coli TOP10
Experiment: shrunken log2 fold change of peptide-encoding DNA abundance (4.5 h post-induction vs induction); higher = less antimicrobial activity (less host growth inhibition)
Settings: time post-induction: 4.5 h; library: site-saturation at positions 5, 18, 19, 20
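Also: peptides expressed intracellularly from a pBAD plasmid library in pooled LB shake-flask culture, induced with 0.3% L-arabinose, DNA abundance read by NGS, three biological replicates, DESeq2 with apeglm shrinkage.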

| Sequence | shrunken log2 fold change |
| --- | --- |
| RRIRFRPPRLPRPRPRPGRQPRP | 0.179 |
| RRIRARPPRLPRPRPRPDYGPRP | -0.679 |
| RRIRHRPPRLPRPRPRPSAGPRP | -0.182 |
| RRIRNRPPRLPRPRPRPLDRPRP | 0.0215 |
| RRIRRRPPRLPRPRPRPMWDPRP | 0.164 |
| RRIRNRPPRLPRPRPRPDAFPRP | -0.0836 |
| RRIRKRPPRLPRPRPRPPAPPRP | 1.14 |
| RRIRTRPPRLPRPRPRPQPEPRP | 0.0514 |
| RRIRFRPPRLPRPRPRPGGRPRP | 0.323 |
| RRIRRRPPRLPRPRPRPACSPRP | 0.377 |
| RRIRHRPPRLPRPRPRPFAFPRP | -0.121 |
| RRIRKRPPRLPRPRPRPLTDPRP | -0.0168 |
| RRIRIRPPRLPRPRPRPVKYPRP | -9.3e-05 |
| RRIRERPPRLPRPRPRPMWVPRP | 0.292 |
| RRIRQRPPRLPRPRPRPSDQPRP | 0.152 |
| RRIRNRPPRLPRPRPRPLPYPRP | -0.542 |
| RRIRSRPPRLPRPRPRPRGEPRP | 0.754 |
| RRIRHRPPRLPRPRPRPFYQPRP | -0.389 |
| RRIRKRPPRLPRPRPRPSLQPRP | 0.447 |
| RRIRGRPPRLPRPRPRPGCYPRP | 0.345 |
| RRIRLRPPRLPRPRPRPWYYPRP | -0.266 |
| RRIRARPPRLPRPRPRPKDMPRP | 0.263 |
| RRIRQRPPRLPRPRPRPAWEPRP | 0.245 |
| RRIRKRPPRLPRPRPRPSRRPRP | 0.337 |
| RRIRIRPPRLPRPRPRPTCWPRP | 0.151 |

| Sequence | shrunken log2 fold change |
| --- | --- |
| RRIRWRPPRLPRPRPRPNYAPRP | -0.0925 |
| RRIRFRPPRLPRPRPRPFLSPRP | -0.167 |
| RRIRYRPPRLPRPRPRPRVNPRP | 0.00364 |
| RRIRRRPPRLPRPRPRPTYVPRP | 0.00831 |
| RRIRMRPPRLPRPRPRPRDRPRP | 1.11 |
| RRIRGRPPRLPRPRPRPVMNPRP | 0.434 |
| RRIRARPPRLPRPRPRPIRPPRP | 0.237 |
| RRIRSRPPRLPRPRPRPSDVPRP | -0.221 |
| RRIRPRPPRLPRPRPRPCYKPRP | -1.32 |
| RRIRMRPPRLPRPRPRPQEHPRP | 0.0123 |
| RRIRVRPPRLPRPRPRPPMPPRP | 0.368 |
| RRIRRRPPRLPRPRPRPHKHPRP | -0.165 |
| RRIRLRPPRLPRPRPRPYADPRP | -0.135 |
| RRIRTRPPRLPRPRPRPDQIPRP | -0.0138 |
| RRIRARPPRLPRPRPRPDWMPRP | 0.383 |
| RRIRERPPRLPRPRPRPASTPRP | -0.527 |
| RRIRPRPPRLPRPRPRPVSSPRP | -0.0455 |
| RRIRSRPPRLPRPRPRPVTMPRP | -0.312 |
| RRIRNRPPRLPRPRPRPSMKPRP | -0.609 |
| RRIRRRPPRLPRPRPRPDIIPRP | -0.135 |
| RRIRVRPPRLPRPRPRPYKIPRP | -0.726 |
| RRIRNRPPRLPRPRPRPGCTPRP | 0.0156 |
| RRIRARPPRLPRPRPRPMETPRP | -0.0508 |
| RRIRKRPPRLPRPRPRPSARPRP | 0.468 |
| RRIRMRPPRLPRPRPRPECLPRP | 1.6 |

Source: the supplement of paper PMC9112550, “Optimization of the antimicrobial peptide Bac7 by deep mutational scanning” (BMC Biology, 2022)
